Measured values published in US20030109454A1 (ADHEREX TECHNOLOGIES, published 2003).

What follows are binders tested against N-cadherin expressed on transfected 3T3 cells (assay: cell-based or functional assay).

Binder | percent inhibition of neurite outgrowth on 3T3 cells expressing N-cadherin, peptide at 100 µg/ml [%]
Ac-LNPISGQ-NH2 [N-Ac-LNPISGQ-NH2] | 19.2
Ac-INAISGQ-NH2 [N-Ac-INAISGQ-NH2] | 37.2
Ac-INPASGQ-NH2 [N-Ac-INPASGQ-NH2] | 7.2
Ac-INPISGQ-NH2 [N-Ac-INPISGQ-NH2] | 94.5

Biological target: N-cadherin expressed on transfected 3T3 cells
Assay: cell-based or functional assay
Remark: another data set of the same source

Binder | EC50 of inhibition of neurite outgrowth on 3T3 cells expressing N-cadherin [µM]
Ac-CINPIC-NH2 (not fully specified (bridges); also: cyclic peptide, linkage not given here) [N-Ac-CINPIC-NH2] | 38.2
Ac-CINPISC-NH2 (not fully specified (bridges); printed as N-Ac-CINPISC-NH2; also: cyclic peptide, linkage not given here) [N-Ac-CINPISC-NH2] | 38.1
Ac-CINPC-NH2 (also: cyclic peptide, ring type not given here) [N-Ac-CINPC-NH2] | 14.3

Biological target: N-cadherin expressed on transfected 3T3 cells
Assay: cell-based or functional assay
Remark: another data set of the same source

Binder | percent inhibition of neurite outgrowth, peptide at 33 µg/ml [%] | percent inhibition of neurite outgrowth, peptide at 100 µg/ml [%] | percent inhibition of neurite outgrowth, peptide at 250 µg/ml [%]
Ac-IDPVNGQ-NH2 [N-Ac-IDPVNGQ-NH2] | 34.3 | 56.4 | 85.6
H-LKIDPANGQI-OH [H-LKIDPANGQI-OH] |  | 56.8 | 
H-WLKIDPVNGQI-OH [H-WLKIDPVNGQI-OH] |  | 76.1 | 
Ac-WLKIDPVNGQI-NH2 [N-Ac-WLKIDPVNGQI-NH2] | 19.8 | 66.9 | 83.5
Ac-NLKIDPVNGQI-NH2 [N-Ac-NLKIDPVNGQI-NH2] | 25.6 | 67.8 | 86.8
Ac-CIDPVNC-NH2 (not fully specified (bridges); printed as N-Ac-CIDPVNC-NH2; also: cyclic peptide, linkage not given here) [N-Ac-CIDPVNC-NH2] | 40.6 | 75.8 | 96.4
Ac-WLKADPVNGQI-NH2 [N-Ac-WLKADPVNGQI-NH2] |  | 22.2 | 54.7
Ac-WLKADAVNGQI-NH2 [N-Ac-WLKADAVNGQI-NH2] |  | 10.5 | 19.7
H-LKIDAVNGQI-OH [H-LKIDAVNGQI-OH] |  | 104 | 
H-LKIDPVNGQI-OH [H-LKIDPVNGQI-OH] |  | 46 | 
Ac-WLKIDAVNGQI-NH2 [N-Ac-WLKIDAVNGQI-NH2] |  | 12.4 | 52.3

Biological target: N-cadherin expressed on transfected 3T3 cells
Assay: cell-based or functional assay
Remark: another data set of the same source

Binder | EC50 of inhibition of neurite outgrowth [µM]
Ac-WLKIDPVNGQI-NH2 [N-Ac-WLKIDPVNGQI-NH2] | 46
